# Experimental data from the NTF2 design screens of Basanta et al. (2020).
# Experiment: protease stability score; higher = more stable; yeast display proteolysis, trypsin and chymotrypsin;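 further: relative to predicted unfolded state with 0 unfolded-like and 1 meaning tenfold more protease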
row,Sequence,protease stability score
1,SEEDRDVRHFLEVWWHRVQTGDEDSLHELADPRMRVDINGRILHGREHISRFMIELTESFGATPEDFQIEHVDTVGNKVHIKTRIFIRQGNFNLIRDTEMIVLKVDGRWLLTEVRVR,2.6
2,SEEEELNQKLLEEIIQILITGDWRALLELADPNVRSEVNGVELHGMETHARHLLEMLEKYPNIQVRIHHLEVQGEKIIIHGTIHFNGRDLRLTLVWHVVNGRWKEVRSELR,1.35
3,DENEHIAREFLRQFLRQVETGDEYRLMELMDPNARINFDGKDLHGRDEWIRKIREIRFDQTHIHDVRIQGNKMEVDTRWDGEINGVRTIFDVHMDIRKVDGKWIIKVINIH,1.66
4,NEEEEESRRAFHLLVELLRTGDEESFTKLADPHMRIIVDGREIHGREEMRRFMEEHWERFPNMKVRIEHFRVQGDKVTIHTVVHIGDKEIEVHIHARKVNGRWIMKELIIVTR,0.552
5,DEHKEILREYAKKFLNDVMTGDEDEIEHLADPHARVEIGDKDIHGWEQWIKHLSRTWKELRIEDYRIRSIELVNGVVHLDTHLHIRIGDKRFDTQVEIHLVVINGKVKSVRVDIR,1.12
6,SDEQEMLTRIIEIFFHAVLTGDEETLIEMLDPHARLDVNGVTVIGMEKIWHHVEEMRFKDTKIHDIDVQGNKMKVDGRLDGQINGREHRFRTIIIIEKINGKWLVKRIIIL,2.44
7,TEEEELSRKAAEILDEAQQTGDEDSIRELVDPNVKYEINGRIFVGWQEMLHAFRLELRHIRLREVHIKREKRIGNWMFIDSSMDGEVNGVRTERKSELVFLKFDGQWSLHSMRIE,1.56
8,SEEERQLHEFAELIVHDLLTGNFELLSSLLDPHARMEINGKRFHGWTQILDILHRIWLHLRIRDRQVRRVEVYNGRINSRIEVDGEINGRRISLDELLILVVVDGRIRSESIHFE,1.03
9,SEEEKDARDFIDYLVHHLETGDEEEFEKLIDPHTRLQVDGRHFHGREAYEWMLYQFKNVKIKHLTIRHIEIQGDKVHITSTWNLIVDGQEKELRTHIILDKVNGRWMIRKMRIQ,1.8
10,DEHERDAHRFIEHLWRILATGDEEELRKLFDPDAKHHDENELYHGREKVTKFISHRFKHLGIDHVEFRLTDLEVQGDKVISRILVIQRVNGVEYRIDMLFIFHKINGRWLIKSLEVH,1.36
11,DELERDVKQVWDLLLESSRTGDEEVLDKMLDPNARMKVNGQESHGRHAVELLSERIDHIHHIEIERFRTQGNKIEIDIHIDGEVNGRRIRTHMHVIIRKIDGRWFVESWEMK,0.931
12,SKEEEDTERITRLILEYLLTGDEDVFNHLADPNVRLVIDGRLVHGRERASRIMVESYEKFGADHREVRMHSVRDVDGRIHSDIKVHVHIGDKRQNLSHEVYSTKYDGRWIIKSVILT,0.245
13,DELDRLAEDWVKIIIHSLKTGDEDTLHKMADPNYQVEIGDFRFHGRERWIHVLREHREELGVTRVHSELHELHTFNGRAVSVVDLHVNGVTLHVIVFVRKVNGRWQDTSQVYKYE,0.491
14,SEDEKFWEDISKIVLDLLRTGDWELSERYADPNVKVHLVIDGQELDLHGREHVVNLVRKLGADHVETEDHKFHYQGNKIRINIHGHLNINGKVQHVEFTEIWVKVDGRWYSQHHEIVFR,1.55
15,DEHEEQIEEFWRITVDQWMTGNEELIETYLDPNARVDINGKQTHGREQVTRLMLREMKHMRIKSIKLRRVRIVDGRVDLDGTLHGEVNGREFVLESHVHAEKFDGRWLIRTIKVN,2.23
16,KEEEELVKKMLDLLVEAWETGDWKLLDHLLDPNVKLEVDGVLHIGREEAVRVMLEFHKRVDHVEVRDRDFRIQGEKVRHEVELRLHQGEFHVITRIEIEVTKVNGRWQMKHIRIE,2.56
17,DEDEETLHEIVEILIRWLKTGDFDAVLKNLDPDARVEINGQELHGREQWYRYIHEEWKKVKNLTIIVSRMHVQGDKVMFEGEVHFDGQRRDVSIDMRVVNGRFRTIKKEVK,1.28
18,DEDTELLKHHLDIFRDAVRTGDEEKERKYADPDDRINVDGVIFHGWEESKRFYEHWRVKDFHVHDMKVQGDKADVESRLVVQINGREVIFRVKLIITKVNGRWKHTMLEIK,1.62
19,NEMEEYVERASRFVYELLQTGDWEKLMNNMDPNVKIRQGNKEYHGREELKRQLEELFKNWGFDRIDVEHHEIKIFENHAHIIHIMRFDGVEHELRIKALKVNGQWLFKTVEIRLH,1.36
20,SEEEEHTHRISRRFWRFLVTGDEDALLKNADPHVRLVIGDKHSHGRENFKRLLREWLEELGAKHLHIRDLEVQGNKVHTHGEMTVNGRNIETHIELVVIDGRHHSMEFRIG,-0.021
21,TEEERIMLEAIDLLIELWRTGDWKLLDEMVDPRVRIEIGEFTHHGREEYLRILLEEVRRADHRRYHIDHLEIINGRVILNGFIDLTFNGVHLRIREHLVAEKVNGRWLLREIRQR,1.72
22,SEEEENSRRVLELFRRIFETGDEDTSRRLADPDARVEVGEFHSIGRESFARMLHHLWRELRWKDEKIEHIEVQGDKVHVNGINFVIYNGKEINLTVHLEMQKVDGRWHIHHFKIE,1.67
23,SHDEEQVDRFLKLWSHAVMTGDWKFMYELLDPHTRLVINGKNVHGREEISKFFHDHVSRIKNLKIEVHLNEVRIFDGRAHLDIEVRIHIGDKNHTIHVEIVVEKVDGRWHVHSIHEK,1.36
24,DEEEHDLRLAVELWHRLLETGDERVEKHLIDPHVRVHFNGRDLHGREAATWTLRTMGVKVFELKRIETFNGQVNIHQHVNVDGQHYDLIIHARKIDGRWVNESMRIH,0.667
25,SEEEEMAHRVLEILLYALRTGDEKWMRKLVDPNVRLHVNGVEFHGRDEYTKFLHEHINRFDHFHSLTVTEIRHQGDFIVLHTILNIQWDGRSTRIDIHIIVLKVNGRWLLHSSSIE,1.25

row,Sequence,protease stability score
1,DKLDKLLREMLELFNHLLKTGDWDTITKLVDPNVRIDINGQELHGMELILEWWLRLGIRNEHERERDRDSQGEFMHVEGHRHIRINGQSTRFDTILHIEIIDGRIKDIKVNLI,1.12
2,SHVEQESREIFEQIVRNLKTGDEDLLTELLDPNTLHIVNGVEIHGMEIVAKFLLDWRRKVKNIRIHDEEERHIEIYGDKVISHVDMDGIVNGRRVRRENIWIAEKVDGRWVIREVEVR,1.94
3,SDEDRLNYEIAKYLLDSLRTGDWHTFRRMADPHVKIRTVINGQELRMHGMEDLMERWKLLGFDHTRVHVEHIEIQGDKAHVRGTVKININGQEHTYETDLDVQIVNGRVESINFNWL,1.14
4,SELDRDVEHVLKELAKAMRTGDEEMLHDMIDPNARMIVDGKNLHGREQIWKFFTELRVDSRRYEVKHSEIQGNKLEIDGRTRIIIIVNGREIDRETHTEIILLKINGKWLMHSVRIE,1.07
5,QEDEKLADEVVERIAHDIHTGDEDSLRHLMDPHVRLQVGDKRYIGRESVLEFLRQLRIEVEDVKIHDIHVVNGQMHSDTRIHGRIFVNGRDIETTLRSKHILLKYDGKWLWHSWHIH,1.31
6,SEEEEILDKLVKHFIHAFRTGDEDRLNELLDPDAKLVIEYGDKRLEHHGRENVLRAWVELIERIKGVRLEWKEIRPQGDFVESRTQLIVNGREVETEVEIIMFNGRFREFTVRIR,2.11
7,DHLRELMERVLERYRRALETGNFEELRNLADPHYRVDIDGQELIGMDEYKRHLIKIKNLKIHHVEIKDVKVQGDKAHVDQEDDIEFDGRRMRLRLHYIWLKFNGRWLLHSMEVE,1.85
8,SEEETMERLSIEITLEMLKTGDETEILKNMDPDARVIVGDKVYHGREHVIELWRRLGVKHSEPKHVYVINGRVHIDMEVHVDGKRFHVHIISHKINGQWSITNVKLEKE,2.02
9,SHEEHHLYEVAEMLLRWWRTGDEDSLYKFIDPHARVEIGEYSVHGREHIVRLMSRHLREIRLKDTDVHRIDVINGQTVLNVRLRGEINGVDTNVDARLHVVVVDGVVHSIHIEHI,1.24
10,DEDTEQVERALHLWVKLVQTGNEEVIRHLLDPNVRIIVNGVDYHGRSALDELQRRVDVNTWKRVRLHDASVYNGRMHIDGEIDTQEIVGDKRIIIHTKVDMVSSKVNGKWIFHSMIFH,0.848
11,DEVEELAKRLLEELIHALETGDFDHNRHLLDPNVRIVIGEKDHVGWREVTKALRHMGIDHIHVRIHRIEVQGDKVHTESSVEMDINGKKLEFDTWLILRKVNGRWLFHSIEIR,1.44
12,DEEEQLSKIALRHFVESLETGDEHLLHRLIDPHARDIVDGVEIHGRDRMVENLIHMIERFKNVRLEIKDIKVINGRVHVEGRLEVDGKKLTMNLHFQKFDGRWWVRSVERH,1.52
13,DEDDEAAQEAVKIVEEVTKTGNWRVLLELLDPHTRVHTEHHELHGMEEYVREVQKMMQDFGVTKVEVRFHEIIIIGEKIHMRVTIHVNGVTLDTEVVSLKYNGRWYLHTLRMK,1
14,SEEEKLSRELSKLILHYLHTGDWDQITELADPNVRIHDTINGRDNDNHGWEMLIALMEQLGVDVRRFHHIRVIGDKVHMEVELNFNGRTVHAEWTFKVVDGRMKSIEIRTK,1.34
15,EEEQEDSEWATKLFIEVLETGDEHTSEHLADPDTRVEFNGKILHGREEWNKIVRKVKNARIHFDHIRVQGDKINVDTTVEVDGKRMKFHIISRKFNGVWFLQSIHIK,2.07
16,DESERIILHIANEFLHLYATGDEDRLRELADPHVRLDVDGQDVHGRELTQKWWKRFVEEIRIRDLHLKDYYIIGEKYHIEGHTRLHIGDKHVETEIRIHIVVVNGKIKSESFHLR,0.541
17,DEEEEISRRIVKLLIELFETGDEEKWKELADPDARVDIDGVDSVGRKHAIHLLHEWKEQLGFKHHRIHSIHVYGEFIDVDGLLIVNGRKIRIHFHFIVVNGRLKEQRLHIE,1.3
18,SEDIEIVKQVLEFHIRSEITGDEDTMTELLDPHTRITIGDKHIHGREEAVRILLEIANHMRIHRFHVHQVHIYDGRLEIDMRIDREYDGKRRHQEVWWIFIKVNGRWYIHSIEIR,1.67
19,DEEREELHRHIKILNKAWTTGDERLLYELMDPHAKINIDGVDFIGREEATEEYHHRWRHLGVDHFEVRFTEIHDIDGRLHMQTKLNLIVNGQREERHTRVHVRKINGRWLVHNLEIR,0.125
20,DEDTEKLEKMIEELFKLWLTGDEEKLTHLADPNMRVDVNGRDLHGRHLMSSLWRQIRIEDQRLRIRDWEFFDGRVTIHSHITVRGHINGRHEEITHDVRIVVDKINGRWIIREFRIH,1.27
21,NEWKEKFERFTRLLLTALMTGNEELLTKMVDPHVKVDIIINGQHIEHHGMERVIEMLTQLRVDRWRIKHIDIQGDKLHVNIHLDIKYDGRREETRTEIRLIIYDGVVHEIEIHLH,1.99
22,KESEEDARKFWEKMVEDNRTGDWDSFEKLVDPHVKMLFNGREYHGRDELLDLFRHIRFKDHEIHDMKVIGNKVRMDTRVHLNVNGREISVDTHLVVEKINGRWVLHSVLFH,1.62
23,DEDEHMRRIAYRLMWEVWHTGNFEELISLVDPHARVDIDGVELHGRENFTHELHERLRRMGVETQFRLRKVESYNGVVHIHTELEITIDGRNHKIDFIFYAHKINGRWRMKSEEYR,1.8
24,SEEEKHIIELFEIWLEAIRTGDENLLLKLADPHYRVIIDVGNKHIHRHGWKEFMEWLRHFTREMRIRHLTLRDYRAVNGVFHADTESVEEIGEFELRTRMHIVLVIINGVFHSVRHKIE,1.23
25,SHDELLATRLVEEVWELWLTGDEDRTAELLDPDVRFFFIVGDKTHTFHGRDKIRKLMHDLRNHWRIHHIRIERFRVQGEYSEFDVRSHGRYNGVEEETTVHLSLDVVNGKVKRIIVHIR,1.6
